Source: patent US20240270846A1 (published 2024)
Positions count from the first letter of the chain named. Blank lines part the entries; values can stand above or below the binder they belong to.

Experiments:
[1] = molecular target: T1, CD3 epsilon homodimer protein (UniProt P07766 23-126); assay: SPR (Biacore T200), CD3 epsilon homodimer on CM4 chip, one-arm antibody as analyte; ratio to unaltered CE115HA000;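 note: surface plasmon resonance run at 25 °C with HBS-EP+ as running buffer, CD3 epsilon homodimer attached by amine coupling, antibody passed over as analyte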
T1 construct: Construct of the homodimer protein is not described; also called CD3 (CD3 epsilon)

[2] = molecular target: human CD137 expressed constitutively on the B cell strain HDLM-2 (human, UniProt Q07011 24-255); assay: cell-based or functional assay
Sequence of human CD137 expressed constitutively on the B cell strain HDLM-2 (Q07011 24-255): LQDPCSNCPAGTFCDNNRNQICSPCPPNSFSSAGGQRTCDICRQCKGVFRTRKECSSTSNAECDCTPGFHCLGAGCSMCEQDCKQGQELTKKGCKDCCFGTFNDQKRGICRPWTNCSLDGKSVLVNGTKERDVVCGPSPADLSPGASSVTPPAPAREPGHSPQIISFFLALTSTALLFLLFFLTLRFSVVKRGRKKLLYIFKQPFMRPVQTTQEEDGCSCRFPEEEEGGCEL

T1 sequence (P07766 23-126): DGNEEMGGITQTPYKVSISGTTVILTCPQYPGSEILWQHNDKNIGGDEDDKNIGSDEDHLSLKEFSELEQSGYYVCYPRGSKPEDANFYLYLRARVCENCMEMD

KD ratio (KD value of CE115HA000/KD value of the altered form) [1]: 0.98
B1: CE115HA000 Y100aF one-arm antibody (antibody, human IgG1, kappa, L234A L235A, N297A, name in Kabat numbering)
heavy: QVQLVESGGGVVQPGRSLRLSCAASGFTFSNAWMHWVRQAPGKGLEWVAQIKAKSNNYATYYAESVKGRFTISRDDSKNSLYLQMNSLKTEDTAVYYCRYVHYGAYFGVDAWGQGTTVTVSSASTKGPSVFPLAPSSKSTSGGTAALGCLVKDYFPEPVTVSWNSGALTSGVHTFPAVLQSSGLYSLSSVVTVPSSSLGTQTYICNVNHKPSNTKVDKKVEPKSCDKTHTCPPCPAPEAAGGPSVFLFPPKPKDTLMISRTPEVTCVVVDVSHEDPEVKFNWYVDGVEVHNAKTKPREEQYASTYRVVSVLTVLHQDWLNGKEYKCKVSNKALPAPIEKTISKAKGQPREPQVYTLPPSRCELTKNQVSLSCAVKGFYPSDIAVEWESNGQPENNYKTTPPVLDSDGSFFLVSKLTVDKSRWQQGNVFSCSVMHEALHNHYTQKSLSLSPDYKDDDDK
chain: EPKSSDKTHTCPPCPAPELLGGPSVFLFPPKPKDTLMISRTPEVTCVVVDVSHEDPEVKFNWYVDGVEVHNAKTKPREEQYNSTYRVVSVLTVLHQDWLNGKEYKCKVSNKALPAPIEKTISKAKGQPREPQVCTLPPSRDELTKNQVSLWCLVKGFYPSDIAVEWESNGQPENNYKTTPPVLDSDGSFFLYSKLTVDKSRWQQGNVFSCSVMHEALHNRYTQKSLSLSP
light: DIVMTQSPLSLPVTPGEPASISCRSSQSLVHSNRNTYLHWYQQKPGQAPRLLIYKVSNRFSGVPDRFSGSGSGTDFTLKISRVEAEDVGVYYCGQGTQVPYTFGQGTKLEIKRTVAAPSVFIFPPSDEQLKSGTASVVCLLNNFYPREAKVQWKVDNALQSGNSQESVTEQDSKDSTYSLSSTLTLSKADYEKHKVYACEVTHQGLSSPVTKSFNRGEC
notes: one-arm antibody

KD ratio (KD value of CE115HA000/KD value of the altered form) [1]: 0.51
B2: CE115HA000 Y100aQ one-arm antibody (antibody, human IgG1, kappa, L234A L235A, N297A, name in Kabat numbering)
heavy: B1 heavy with F107Q
chain: B1 chain
light: B1 light
notes: one-arm antibody

KD ratio (KD value of CE115HA000/KD value of the altered form) [1]: 1.01
B3: CE115HA000 Y100aG one-arm antibody (antibody, human IgG1, kappa, L234A L235A, N297A, name in Kabat numbering)
heavy: B1 heavy with F107G
chain: B1 chain
light: B1 light
notes: one-arm antibody

KD ratio (KD value of CE115HA000/KD value of the altered form) [1]: 0.59
B4: CE115HA000 Y100aS one-arm antibody (antibody, human IgG1, kappa, L234A L235A, N297A, name in Kabat numbering)
heavy: B1 heavy with F107S
chain: B1 chain
light: B1 light
notes: one-arm antibody

KD ratio (KD value of CE115HA000/KD value of the altered form) [1]: 0.79
B5: CE115HA000 Y100aK one-arm antibody (antibody, human IgG1, kappa, L234A L235A, N297A, name in Kabat numbering)
heavy: B1 heavy with F107K
chain: B1 chain
light: B1 light
notes: one-arm antibody

KD ratio (KD value of CE115HA000/KD value of the altered form) [1]: 0.57
B6: CE115HA000 Y100aL one-arm antibody (antibody, human IgG1, kappa, L234A L235A, N297A, name in Kabat numbering)
heavy: B1 heavy with F107L
chain: B1 chain
light: B1 light
notes: one-arm antibody

Agonistic activity compared to B, antibody 6 µg/mL [2]: 100%
Agonistic activity compared to B, antibody 30 µg/mL [2]: 100%
Agonistic activity compared to Ctrl, antibody 6 µg/mL [2]: 347%
Agonistic activity compared to Ctrl, antibody 30 µg/mL [2]: 380%
hIL-6 (pg/mL), antibody 6 µg/mL [2]: 4520 pg/mL
hIL-6 (pg/mL), antibody 30 µg/mL [2]: 4340 pg/mL
B7: GPC3 ERY22-B (bispecific antibody, human IgG1, kappa, L234A L235A, N297A)
heavy 1: DIVMTQSPLSLPVTPGEPASISCRSSQSLVHSNRNTYLHWYQQKPGQAPRLLIYKVSNRFSGVPDRFSGSGSGTDFTLKISRVEAEDVGVYYCSQNTHVPPTFGQGTKLEIKSSASTKGPSVFPLAPSSKSTSGGTAALGCLVKDYFPEPVTVSWNSGALTSGVHTFPAVLQSSGLYSLSSVVTVPSSSLGTQTYICNVNHKPSNTKVDKKVEPKSCDKTHTCPPCPAPEAAGGPSVFLFPPKPKDTLMISRTPEVTCVVVDVSHEDPEVKFNWYVDGVEVHNAKTKPREEQYASTYRVVSVLTVLHQDWLNGKEYKCKVSNKALPAPIEKTISKAKGQPREPQVCTLPPSRDELTKNQVSLWCLVKGFYPSDIAVEWESNGQPENNYKTTPPVLDSDGSFFLYSKLTVDKSRWQQGNVFSCSVMHEALHNHYTQKSLSLSPHHHHHHHH
light 1: QVQLVQSGAEVKKPGASVKVSCKASGYTFTDYEMHWIRQPPGQGLEWIGAIDPKTGDTAYSQKFKGRVTLTADKSTSTAYMELSSLTSEDTAVYYCTRFYSYTYWGQGTLVTVSSASVAAPSVFIFPPSDEQLKSGTASVVCLLNNFYPREAKVQWKVDNALQSGNSQESVTEQDSKDSTYSLSSTLTLSKADYEKHKVYACEVTHQGLSSPVTKSFNRGEC
heavy 2: QVQLQQWGAGLLKPSETLSLTCAVYGGSFSGYYWSWIRQSPEKGLEWIGEINHGGYVTYNPSLESRVTISVDTSKNQFSLKLSSVTAADTAVYYCARDYGPGNYDWYFDLWGRGTLVTVSSASTKGPSVFPLAPSSKSTSGGTAALGCLVKDYFPEPVTVSWNSGALTSGVHTFPAVLQSSGLYSLSSVVTVPSSSLGTQTYICNVNHKPSNTKVDKKVEPKSCDKTHTCPPCPAPEAAGGPSVFLFPPKPKDTLMISRTPEVTCVVVDVSHEDPEVKFNWYVDGVEVHNAKTKPREEQYASTYRVVSVLTVLHQDWLNGKEYKCKVSNKALPAPIEKTISKAKGQPREPQVYTLPPSRCELTKNQVSLSCAVKGFYPSDIAVEWESNGQPENNYKTTPPVLDSDGSFFLVSKLTVDKSRWQQGNVFSCSVMHEALHNHYTQKSLSLSP
light 2: not shown

Agonistic activity compared to B, antibody 6 µg/mL [2]: 13.9%
Agonistic activity compared to B, antibody 30 µg/mL [2]: 24.6%
Agonistic activity compared to Ctrl, antibody 6 µg/mL [2]: 48.3%
Agonistic activity compared to Ctrl, antibody 30 µg/mL [2]: 93.5%
hIL-6 (pg/mL), antibody 6 µg/mL [2]: 1500 pg/mL
hIL-6 (pg/mL), antibody 30 µg/mL [2]: 1750 pg/mL
B8: GPC3 ERY22-dBBDu_186/L098 (bispecific antibody, human IgG1, kappa, L234A L235A, N297A)
heavy 1: B7 heavy 1
light 1: B7 light 1
heavy 2: QVQLVESGGGLVQPGRSLRLSCAASGFTFSNAWMHWVRQAPGKGLEWVAQIKDRSNQYATYYAPSVKGRFTISRDDSKNSIYLQMNSLKTEDTAVYYCHYVHYAQASTVLPAFGVDAWGQGTTVTVSSASTKGPSVFPLAPSSKSTSGGTAALGCLVKDYFPEPVTVSWNSGALTSGVHTFPAVLQSSGLYSLSSVVTVPSSSLGTQTYICNVNHKPSNTKVDKKVEPKSCDKTHTCPPCPAPEAAGGPSVFLFPPKPKDTLMISRTPEVTCVVVDVSHEDPEVKFNWYVDGVEVHNAKTKPREEQYASTYRVVSVLTVLHQDWLNGKEYKCKVSNKALPAPIEKTISKAKGQPREPQVYTLPPSRCELTKNQVSLSCAVKGFYPSDIAVEWESNGQPENNYKTTPPVLDSDGSFFLVSKLTVDKSRWQQGNVFSCSVMHEALHNHYTQKSLSLSPDYKDDDDK
light 2: DIVMTQSPLSLPVTPGEPASISCAASEELVHINRYIFLHWYQQKPGQAPRLLIYKVSNRFIGVPDRFSGSGSGTDFTLKISRVEAEDVGVYYCAQGSQVPFTFGQGTKLEIKRTVAAPSVFIFPPSDEQLKSGTASVVCLLNNFYPREAKVQWKVDNALQSGNSQESVTEQDSKDSTYSLSSTLTLSKADYEKHKVYACEVTHQGLSSPVTKSFNRGEC

Agonistic activity compared to B, antibody 6 µg/mL [2]: 3.21%
Agonistic activity compared to B, antibody 30 µg/mL [2]: 15.8%
Agonistic activity compared to Ctrl, antibody 6 µg/mL [2]: 11.1%
Agonistic activity compared to Ctrl, antibody 30 µg/mL [2]: 59.8%
hIL-6 (pg/mL), antibody 6 µg/mL [2]: 1130 pg/mL
hIL-6 (pg/mL), antibody 30 µg/mL [2]: 1450 pg/mL
B9: GPC3 ERY22-dBBDu_183/L072 (bispecific antibody, human IgG1, kappa, L234A L235A, N297A)
heavy 1: B7 heavy 1
light 1: B7 light 1
heavy 2: B8 heavy 2 with R54K, S55G, Q57A, T60A, Q105S
light 2: B1 light with R24Q, S25A, S28E, S32M, S61P, G94A, Q98S, Y101F

Agonistic activity compared to B, antibody 6 µg/mL [2]: -2.21%
Agonistic activity compared to B, antibody 30 µg/mL [2]: 1.1%
Agonistic activity compared to Ctrl, antibody 6 µg/mL [2]: -7.68%
Agonistic activity compared to Ctrl, antibody 30 µg/mL [2]: 4.19%
hIL-6 (pg/mL), antibody 6 µg/mL [2]: 935 pg/mL
hIL-6 (pg/mL), antibody 30 µg/mL [2]: 944 pg/mL
B10: GPC3 ERY22-dBBDu_167/L091 (bispecific antibody, human IgG1, kappa, L234A L235A, N297A)
heavy 1: B7 heavy 1
light 1: B7 light 1
heavy 2: B8 heavy 2 with R54K, S55G, Q57L, T60A, Q105S, S107G, T108G, V109G, A112G
light 2: B1 light with R24S, S25A, Q27E, V30L, S32N, N35H, K55R, S61N, Y101F

Agonistic activity compared to B, antibody 6 µg/mL [2]: 13.2%
Agonistic activity compared to B, antibody 30 µg/mL [2]: 19.4%
Agonistic activity compared to Ctrl, antibody 6 µg/mL [2]: 45.8%
Agonistic activity compared to Ctrl, antibody 30 µg/mL [2]: 73.6%
hIL-6 (pg/mL), antibody 6 µg/mL [2]: 1480 pg/mL
hIL-6 (pg/mL), antibody 30 µg/mL [2]: 1570 pg/mL
B11: GPC3 ERY22-dBBDu_186/L106 (bispecific antibody, human IgG1, kappa, L234A L235A, N297A)
heavy 1: B7 heavy 1
light 1: B7 light 1
heavy 2: B8 heavy 2
light 2: B8 light 2 with A24S, A25T, V30L, Y35F, S57A, I61M

Agonistic activity compared to B, antibody 6 µg/mL [2]: -1.27%
Agonistic activity compared to B, antibody 30 µg/mL [2]: 6.51%
Agonistic activity compared to Ctrl, antibody 6 µg/mL [2]: -4.41%
Agonistic activity compared to Ctrl, antibody 30 µg/mL [2]: 24.7%
hIL-6 (pg/mL), antibody 6 µg/mL [2]: 968 pg/mL
hIL-6 (pg/mL), antibody 30 µg/mL [2]: 1130 pg/mL
B12: GPC3 ERY22-dBBDu_183/L063 (bispecific antibody, human IgG1, kappa, L234A L235A, N297A)
heavy 1: B7 heavy 1
light 1: B7 light 1
heavy 2: B8 heavy 2 with R54K, S55G, Q57A, T60A, Q105S
light 2: B1 light with S28E, S32T, N35H, S61P, G94A, Y101F

Agonistic activity compared to B, antibody 6 µg/mL [2]: 19%
Agonistic activity compared to B, antibody 30 µg/mL [2]: 24.2%
Agonistic activity compared to Ctrl, antibody 6 µg/mL [2]: 66.1%
Agonistic activity compared to Ctrl, antibody 30 µg/mL [2]: 91.7%
hIL-6 (pg/mL), antibody 6 µg/mL [2]: 1680 pg/mL
hIL-6 (pg/mL), antibody 30 µg/mL [2]: 1740 pg/mL
B13: GPC3 ERY22-dBBDu_186/L096 (bispecific antibody, human IgG1, kappa, L234A L235A, N297A)
heavy 1: B7 heavy 1
light 1: B7 light 1
heavy 2: B8 heavy 2
light 2: B8 light 2 with A24R, A25T, E27Q, S57Y, I61Q, S97T, Q98S, F101Y

Agonistic activity compared to B, antibody 6 µg/mL [2]: 8.28%
Agonistic activity compared to B, antibody 30 µg/mL [2]: 19.2%
Agonistic activity compared to Ctrl, antibody 6 µg/mL [2]: 28.7%
Agonistic activity compared to Ctrl, antibody 30 µg/mL [2]: 72.9%
hIL-6 (pg/mL), antibody 6 µg/mL [2]: 1300 pg/mL
hIL-6 (pg/mL), antibody 30 µg/mL [2]: 1570 pg/mL
B14: GPC3 ERY22-dBBDu_189/L116 (bispecific antibody, human IgG1, kappa, L234A L235A, N297A)
heavy 1: B7 heavy 1
light 1: B7 light 1
heavy 2: B8 heavy 2 with V48I, T108S, V109L, A112S
light 2: B8 light 2 with A24S, A25S, E27Q, I32A, Y35Q, F37Y, S57A, I61P, S97T
